{"source": "patent US7396682B2", "about": "“Method for cell adhesion and wound healing” (Regen Biotech, Inc., priority 2000, dated 2008)", "key": {"HCE cells": {"test_system": "HCE cells", "test": "Divalent cation sensitivity of βig-h3-mediated adhesion", "assay_type": "cell-based, human", "conditions": "cells incubated 30 min with divalent cations in HBS", "description": "To analyze the divalent cation sensitivity of βig-h3-mediated adhesion, cells were suspended in HEPES-buffered saline (HBS) (150 mM NaCl, 25 mM HEPES, 2 mM EDTA, pH 7.4) at a density of 2×10^5 cells/ml and incubated at 37° C. for 30 min. Then, they were washed twice in HBS and resuspended in the same buffer. Aliquots of cells (50 μl) were then added to the microculture plate wells and incubated for 30 min at 37° C. in a humidified atmosphere of 5% CO2 with 50 μl aliquots of HBS containing divalent cations (MnCl2, MgCl2 or CaCl2) at a concentration twice as large as the final concentration. Subsequently, they were plated on ligand-coated dishes to perform the adhesion assay."}, "[1]": {"test_system": "Human corneal epithelial (HCE) cells", "test": "HCE cell adhesion and spreading assay on protein-coated plates", "assay_type": "cell-based", "conditions": "HCE cells on coated recombinant protein", "description": "Human corneal epithelial (HCE) cells used in this assay were cultured in DMEM ([…], Gibco BRL) supplemented with 15% fetal bovine serum, Gentamicin (40 μg/ml), insulin (5 μg/ml), cholera toxin (0.1 μg/ml) and human epidermal growth factor (hEGF) at 37° C. in 5% CO2.\nThe cell adhesion assay was performed as follows. First, the recombinant βig-h3 proteins or other extracellular matrix proteins were let to adhere to the bottoms of 96-well microculture plates (Falcon) by incubation at 37° C. for 1 hour and blocked with PBS containing 0.2% BSA. The coated extracellular matrix proteins were human plasma vitronectin (Promega), purified human plasma fibronectin (pFN), chicken collagen types I and II (Chemicon International Inc.), bovine collagen types IV and VI (Chemicon), mouse laminin (Chemicon), and bovine serum albumin (BSA) (Sigma). Cells were trypsinized and suspended in the culture media at a density of 2×10^5 cells/ml. 0.1 ml of the cell suspension was added to each well of the plates coated with the recombinant proteins.\nFollowing incubation at 37° C. for 1 hour, unattached cells were removed by rinsing with PBS. Attached cells were incubated for 1 hour at 37° C. in 50 mM citrate buffer, pH 5.0, containing 3.75 mM p-nitrophenol-N-acetyl 1-β-D-glycosaminide as a hexosaminidase substrate and 0.25% Triton X-100, followed by the addition of 50 mM glycine buffer, pH 10.4, containing 5 mM EDTA to block the enzyme activity. A measurement was made of absorbance at 405 nm in a Multiskan MCC/340 microplate reader.\nTo determine cell area as an index for cell adhesion activity, 4×10^4 cells were applied to substrates in 48-well culture plates. The attached cells were fixed weith 8% glutaraldehyde (Sigma) and then stained with 0.25% Crystal Violet (Sigma) in 20% methanol. Measurement of cell areas was performed by Image-Pro plus software (Media Cybernetics). Experiments were repeated in triplicate with 200 or 300 measurements per site for each experiment. Data is reported as the mean area at specific time points±standard error of mean."}, "[2]": {"test_system": "dermal whole layer wounds on the backs of rats", "test": "Wound healing with ointment bases on dermal whole layer wounds (2 cm) of rats", "assay_type": "in vivo, rat", "parameters": "key to Formation grade of collagenous fibers at wound: 0: negative; 1+: insignificant; 2+: scatteringly formed; 3+: very dense; key to Re-ephithelialization of Wound (grade): 0: zero was set for the formation of no epithelial layers; 1+ for initiation of epithelialization; 2+ for incomplete epithelial layer structure; 3+ for complete epithelial layer structure", "conditions": "for wound area: ointment 100 μg/ml, 1 g per day, mean", "description": "To compare wound healing activity between the recombinant βig-h3 protein His-β-b, which contains all of the four fas-1 domains, like native βig-h3 protein, and the recombinant βig-h3 protein βigh3-D-IV, which contains the 4th domain alone, ointment bases comprising the recombinant proteins were tested as follows.\nFour dermal whole layer wounds, each 2 cm in diameter, were made on the backs of rats and divided into test groups 1-A, 1-B, 1-C and 1-D according to the ointment applied thereto.\n1-A: coated at a dose of 1 gm per day with an ointment base combined with no materials.\n1-B: coated at a dose of 1 gm per day with an ointment in which fibronectin was combined at a concentration of 100 μg/ml with a base.\n1-C: coated at a dose of 1 g per day with an ointment in which Hisβ-b protein was combined at a concentration of 100 μg/ml with a base.\n1-D: coated at a dose of 1 g per day with an ointment in which βigh3-D-IV protein was combined at a concentration of 100 μg/ml with a base.\nThe backs of etherized rats were shaved, followed by sterilizing the shaved region with betadin solution. In test group 1, the back of each rat was cut by use of a No. 15 surgical blade to form four circular wounds with a diameter of 2 cm penetrating the whole dermal layers. Ointments for test groups 1-A, 1-B, 1-C and 1-D were applied at an amount of about 1 g to the wounds which were then covered with a synthetic dressing (Tegaderm® 3M) and lightly bandaged. Application of ointments was performed once every day.\nWith a base of an aqueous material (SamA base), each of the ointments contained, per 1 g, spermaceti 38 mg, stearyl alcohol 116 mg, polyethylglycol 38 mg, conc. glycerin 192 mg, ethanol 23 mg, […], ethyl paraoxybenzoate 0.87 mg, butyl paraoxybenzoate 0.12 mg, and purified water.\nFirst, morphologies of wounds were observed. The same scale was positioned near each wound and pictures were taken at the same distance from each wound. Pictures were scanned in a computer and used to measure areas of the wounds with the aid of NIH image analysis system (Bio-Optics). To take the pictures, the muscle was completely relaxed by etherizing the rats. Measurements were performed once every other day until the 22nd day. For comparing test groups, the measured values were analyzed according to ANOVA test and Scheffer's test.\nHistological analysis was conducted under an optical microscope. Biopsies of wound sites were taken at days 3, 7, 10, 14 and 20, and fixed in 10% formalin and solidified with paraffin. 6 μm slices of the samples were dyed with hematoxylin-eosin (H&E) and Masson's trichrome before observation under a microscope. Wound healing effects according to time of each test material were evaluated through re-epithelialization and formation of collagenous fibers. In the case of re-epithelialization, epithelial formation was semi-quantified in such a way that zero was set for the formation of no epithelial layers, 1+ for initiation of epithelialization, 2+ for incomplete epithelial layer structure, and 3+ for complete epithelial layer structure. Regarding comparison among test groups and differences according to time within each group, measured values were statistically analyzed using ANOVA test and Scheffe's test. As for collagenous fiber formation, it was graded as 1+ for insignificant formation of collagenous fibers as observed with trichrome dye, 2+ for scatteringly spaced collagenous fibers, and 3+ for dense collagenous fibers."}, "[3]": {"test": "Expression form and non-denaturing gel electrophoresis of recombinant proteins", "assay_type": "physicochemical", "conditions": "electrophoresis using non-denaturing gel", "description": "The recombinant proteins containing at least one 4th domain, such as βig3-D-IV, 2X, 3X and 4X were prepared as follows. A DNA fragment encoding to amino acid 498-637 corresponding the 4th domain was obtained by PCR and the PCR products were blunt-ended by Klenow enzyme. This blunt-ended cDNA fragment was inserted to the EcoRV site of the pβig-h3 D-IV, which contained the 4th domain of βig-h3, and the resulting expression vector was named pβI-h3 D-IV 2X. The insert of the pβig-h3 D-IV 2X was excised by digestion with EcoRV and XhoI and blunt-ended by treatment with Klenow, followed by inserting the blunt-ended fragment into EcoRV sites of pβig-h3 D-IV and pβig-h3 D-IV 2X. The resulting expression vectors were named pβig-h3 D-IV 3X and pβig-h3 D-IV 4X. Expression of all recombinant proteins was induced for 3 hours in the presence of 1 mM IPTG and isolated by use of Ni-NTA resin (Qiagen)."}}, "note": "“Also recorded” adds a separate entry of the source.", "data": [{"molecule": "[Cl][Mn][Cl]", "note": "[Mn^2+, MnCl2]", "values": [{"measurement": "promotion of cell adhesion to βig-h3 by divalent cations", "setting": "HCE cells", "value": "strongly promoted"}]}, {"molecule": "βig-h3 D-IV: recombinant polypeptide, 4th fas-1 domain of βig-h3, amino acids 498-637 (SEQ ID NO:26) (protein, left off: small tags and cut ends) LTPPMGTVMDVLKGDNRFSMLVAAIQSAGLTETLNREGVYTVFAPTNEAFRALPPRERSRLLGDAKELANILKYHIGDEILVSGGIGALVRLKSLQGDKLEVSLKNNVVSVNKEPVAEPDIMATNGVVHVITNVLQPPAN", "values": [{"measurement": "HCE cell adhesion activity", "setting": "[1]", "value": "equally active compared to the wild type βig-h3; also recorded: high cell attachment activity"}, {"measurement": "wound area", "setting": "[2]; Day 0", "value": 3.15}, {"measurement": "wound area", "setting": "[2]; Day 2", "value": 2.62, "unit": "cm²"}, {"measurement": "Formation grade of collagenous fibers at wound", "setting": "[2]; Day 3", "value": "1+"}, {"measurement": "Re-ephithelialization of Wound (grade)", "setting": "[2]; Day 3", "value": 0}, {"measurement": "wound area", "setting": "[2]; Day 4", "value": 2.37}, {"measurement": "wound area", "setting": "[2]; Day 6", "value": 1.98}, {"measurement": "Re-ephithelialization of Wound (grade)", "setting": "[2]; Day 7", "value": 0}, {"measurement": "Formation grade of collagenous fibers at wound", "setting": "[2]; Day 7, listed as 1-D", "value": "+1"}, {"measurement": "Formation grade of collagenous fibers at wound", "setting": "[2]; Day 7, listed as βigD-IV", "value": "1+"}, {"measurement": "wound area", "setting": "[2]; Day 8", "value": 1.51, "unit": "cm²"}, {"measurement": "Formation grade of collagenous fibers at wound", "setting": "[2]; Day 10", "value": "2+"}, {"measurement": "Re-ephithelialization of Wound (grade)", "setting": "[2]; Day 10", "value": "1+"}, {"measurement": "wound area", "setting": "[2]; Day 10", "value": 0.98, "unit": "cm²"}, {"measurement": "wound area", "setting": "[2]; Day 12", "value": 0.44}, {"measurement": "Formation grade of collagenous fibers at wound", "setting": "[2]; Day 14", "value": "3+"}, {"measurement": "Re-ephithelialization of Wound (grade)", "setting": "[2]; Day 14", "value": "2+"}, {"measurement": "wound area", "setting": "[2]; Day 14", "value": 0.22}, {"measurement": "wound area", "setting": "[2]; Day 16", "value": 0.20}, {"measurement": "wound area", "setting": "[2]; Day 18", "value": 0.18}, {"measurement": "Formation grade of collagenous fibers at wound", "setting": "[2]; Day 20", "value": "3+"}, {"measurement": "Re-ephithelialization of Wound (grade)", "setting": "[2]; Day 20", "value": "3+"}, {"measurement": "wound area", "setting": "[2]; Day 20", "value": 0.13}, {"measurement": "wound area", "setting": "[2]; Day 22", "value": 0.06}, {"measurement": "completion of re-epithelialization", "setting": "[2]; optical microscope", "value": 20, "unit": "days"}, {"measurement": "polymer formation", "setting": "[3]", "value": "did not form polymers"}]}]}
